Source: PMC5036783 (Biophysics, 2011)

Tests used:
Experiment in all cases: pull-down; Ni-NTA resin holding histidine tagged fusion pHtrII from cell-free translation; untagged ppR 0.8 mM and pHtrII 0.08 mM mixed in buffer S (300 mM NaCl, 50 mM MES, 5 mM imidazole, pH 6.5) with 0.1% DDM, 1 h, room temperature; eluted ppR read by absorbance at 498 nm
Settings in all cases: one partner purified
[1] = molecular target: T1, thioredoxin-tagged pHtrII 1-114 (cell-free) (Natronomonas pharaonis, UniProt P42259 1-114)
T1 sequence (looked up): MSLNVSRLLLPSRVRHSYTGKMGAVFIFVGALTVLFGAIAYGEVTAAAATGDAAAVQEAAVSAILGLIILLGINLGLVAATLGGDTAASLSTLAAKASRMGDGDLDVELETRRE

[2] = molecular target: T2, glutathione S-transferase-tagged pHtrII 1-114 (cell-free) (Natronomonas pharaonis, UniProt P42259 1-114)
T2 sequence (looked up): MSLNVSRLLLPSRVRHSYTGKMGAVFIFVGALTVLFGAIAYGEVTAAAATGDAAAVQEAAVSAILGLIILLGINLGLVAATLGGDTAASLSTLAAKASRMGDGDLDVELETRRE

[3] = molecular target: T3, green fluorescent protein-tagged pHtrII 1-114 (cell-free) (Natronomonas pharaonis, UniProt P42259 1-114)
T3 sequence (looked up): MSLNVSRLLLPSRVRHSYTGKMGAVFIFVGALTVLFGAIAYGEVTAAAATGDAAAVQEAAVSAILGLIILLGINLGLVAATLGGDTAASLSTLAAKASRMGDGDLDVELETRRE

Measured: binding activity relative to pHtrII expressed in E. coli

B1: pharaonis phoborhodopsin (ppR), untagged (natural protein, Natronomonas pharaonis, UniProt P42196 1-239, looked up)
chain: MVGLTTLFWLGAIGMLVGTLAFAWAGRDAGSGERRYYVTLVGISGIAAVAYVVMALGVGWVPVAERTVFAPRYIDWILTTPLIVYFLGLLAGLDSREFGIVITLNTVVMLAGFAGAMVPGIERYALFGMGAVAFLGLVYYLVGPMTESASQRSSGIKSLYVRLRNLTVILWAIYPFIWLLGPPGVALLTPTVDVALIVYLDLVTKVGFGFIALDAAATLRAEHGESLAGVDTDAPAVAD
~50%: [1] | [2] | [3]
